Tests used:
[1] = target: T1, Ku70 C85Y-Strep;Ku80-6xHis (Saccharomyces cerevisiae;Saccharomyces …, UniProt P32807;Q04437 1-602;1-629, C85Y|); test: EMSA; 13 nM DNA; 0-104 nM Ku; shift detectable at 2-fold ratio of Ku to DNA (stronger than wild type); 2 mM MgCl2; EMSA: 25 mM Tris/HCl pH 7.5, 100 mM NaCl, 2 mM MgCl2, 7% glycerol, 1 mM DTT, 30 min on ice; 6% native gel at 4 °C; settings: protein: recombinant;recombinant; tags: Strep;6xHis; copies: 1;1; label: 32P; blunt
T1 sequence 1: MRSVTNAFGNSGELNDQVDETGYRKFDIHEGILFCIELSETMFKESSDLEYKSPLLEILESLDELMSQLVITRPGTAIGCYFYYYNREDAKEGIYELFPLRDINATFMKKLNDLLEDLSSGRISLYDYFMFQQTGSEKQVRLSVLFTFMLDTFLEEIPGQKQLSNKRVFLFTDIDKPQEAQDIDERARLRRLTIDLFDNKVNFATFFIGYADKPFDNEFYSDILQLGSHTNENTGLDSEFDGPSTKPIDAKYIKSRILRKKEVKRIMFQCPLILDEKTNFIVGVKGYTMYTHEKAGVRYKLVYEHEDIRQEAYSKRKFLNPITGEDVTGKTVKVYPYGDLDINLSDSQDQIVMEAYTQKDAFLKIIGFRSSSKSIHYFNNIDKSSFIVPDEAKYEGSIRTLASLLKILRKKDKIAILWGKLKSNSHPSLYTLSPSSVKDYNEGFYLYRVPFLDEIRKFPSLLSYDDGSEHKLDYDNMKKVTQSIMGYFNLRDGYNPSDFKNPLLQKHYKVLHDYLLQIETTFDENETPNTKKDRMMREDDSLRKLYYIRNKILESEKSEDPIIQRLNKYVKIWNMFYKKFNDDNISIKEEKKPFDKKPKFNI
T1 sequence 2: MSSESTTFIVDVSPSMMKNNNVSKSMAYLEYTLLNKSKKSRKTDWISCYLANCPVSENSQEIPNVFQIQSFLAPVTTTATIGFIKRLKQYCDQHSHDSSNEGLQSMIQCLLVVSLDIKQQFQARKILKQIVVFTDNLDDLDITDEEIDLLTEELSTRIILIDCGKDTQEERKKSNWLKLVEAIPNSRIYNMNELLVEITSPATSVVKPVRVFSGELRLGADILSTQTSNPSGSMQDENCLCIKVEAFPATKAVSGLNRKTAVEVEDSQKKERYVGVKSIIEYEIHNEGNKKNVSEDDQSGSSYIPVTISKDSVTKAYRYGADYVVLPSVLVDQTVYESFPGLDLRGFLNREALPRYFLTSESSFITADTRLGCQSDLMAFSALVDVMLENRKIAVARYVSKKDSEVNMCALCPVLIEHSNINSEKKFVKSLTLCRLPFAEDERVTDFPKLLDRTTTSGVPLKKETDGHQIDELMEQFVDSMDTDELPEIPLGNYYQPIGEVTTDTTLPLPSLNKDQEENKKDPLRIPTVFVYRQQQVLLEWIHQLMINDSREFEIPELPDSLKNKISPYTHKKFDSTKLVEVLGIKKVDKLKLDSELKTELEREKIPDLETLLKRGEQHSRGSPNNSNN

[2] = target: T2, Ku70-Strep (wild type);Ku80-6xHis (Saccharomyces cerevisiae;Saccharomyces …, UniProt P32807;Q04437 1-602;1-629, |); test: EMSA; 13 nM DNA; 0-104 nM Ku; shift detectable at 4-fold ratio of Ku to DNA; 2 mM MgCl2; EMSA: 25 mM Tris/HCl pH 7.5, 100 mM NaCl, 2 mM MgCl2, 7% glycerol, 1 mM DTT, 30 min on ice; 6% native gel at 4 °C; settings: protein: recombinant;recombinant; tags: Strep;6xHis; copies: 1;1; label: 32P; blunt
T2 sequence 1: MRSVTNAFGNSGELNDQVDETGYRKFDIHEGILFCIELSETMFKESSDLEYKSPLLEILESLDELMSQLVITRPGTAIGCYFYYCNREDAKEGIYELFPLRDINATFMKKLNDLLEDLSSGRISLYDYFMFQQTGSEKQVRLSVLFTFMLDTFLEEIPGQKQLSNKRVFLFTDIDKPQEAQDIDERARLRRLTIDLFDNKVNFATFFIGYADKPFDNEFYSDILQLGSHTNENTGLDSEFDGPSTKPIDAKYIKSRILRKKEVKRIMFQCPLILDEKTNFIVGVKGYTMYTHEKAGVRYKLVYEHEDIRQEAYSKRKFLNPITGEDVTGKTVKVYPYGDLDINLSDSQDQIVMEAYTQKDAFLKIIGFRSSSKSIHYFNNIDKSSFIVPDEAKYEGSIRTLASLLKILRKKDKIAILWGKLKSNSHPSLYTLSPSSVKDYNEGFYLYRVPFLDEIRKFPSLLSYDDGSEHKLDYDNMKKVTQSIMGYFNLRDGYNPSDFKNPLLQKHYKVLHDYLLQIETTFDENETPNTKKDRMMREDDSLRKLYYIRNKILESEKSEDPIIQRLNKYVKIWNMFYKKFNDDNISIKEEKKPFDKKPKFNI
T2 sequence 2: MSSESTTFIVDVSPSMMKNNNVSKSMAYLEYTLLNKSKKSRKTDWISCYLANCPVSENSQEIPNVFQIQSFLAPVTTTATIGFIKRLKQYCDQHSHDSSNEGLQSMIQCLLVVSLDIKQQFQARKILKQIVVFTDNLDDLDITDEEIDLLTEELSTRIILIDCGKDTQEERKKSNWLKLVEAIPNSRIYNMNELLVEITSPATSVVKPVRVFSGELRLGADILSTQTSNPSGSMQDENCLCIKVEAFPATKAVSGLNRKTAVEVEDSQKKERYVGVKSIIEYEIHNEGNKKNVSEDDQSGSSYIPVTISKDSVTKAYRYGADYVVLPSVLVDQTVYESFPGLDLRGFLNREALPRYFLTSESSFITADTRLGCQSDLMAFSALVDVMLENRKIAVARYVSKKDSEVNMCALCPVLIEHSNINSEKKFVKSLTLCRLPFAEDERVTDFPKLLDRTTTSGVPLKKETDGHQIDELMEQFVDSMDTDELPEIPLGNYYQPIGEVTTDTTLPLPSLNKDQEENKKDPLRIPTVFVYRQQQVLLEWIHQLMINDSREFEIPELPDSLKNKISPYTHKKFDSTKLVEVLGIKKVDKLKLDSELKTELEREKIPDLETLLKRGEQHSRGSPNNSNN

B1: 21 bp blunt-ended dsDNA (dsDNA)
DNA 1: CCGCACACCCACACACCAGTG
DNA 2: CACTGGTGTGTGGGTGTGCGG
- binding result [1]: binds
- binding result [2]: binds
